Measurements reported in the supplement of paper PMC9170038.

System: MS2 coat protein
Test: apparent KD of MS2 coat protein; higher = weaker reporter binding
Conditions: Eterna round: R107
Procedure, shortened: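 Titrations with SNAP-549-labelled MS2 coat protein ran in twofold steps from 0.7 or 1.5 nM to 3 µM, each step taking 0.8–1.5 h at the start and 10–20 min toward the end. The targets were designed RNA switches transcribed on-chip from Illumina sequencing clusters, held in 100 mM Tris-HCl pH 7.5, 80 mM KCl, 4 mM MgCl2, without or with constant ligand. Apparent KD was taken per design as the median of normalised cluster binding-curve fits.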

[1] = input ligand: theophylline 20 uM
[2] = input ligand: tryptophan 2.4 mM
[3] = input ligand: theophylline 2 mM

Sequence | apparent KD of MS2 coat protein (input ligand: arginine 13.2 mM) [nM] | apparent KD of MS2 coat protein [1] [nM] | apparent KD of MS2 coat protein [2] [nM] | apparent KD of MS2 coat protein [3] [nM] | apparent KD of MS2 coat protein (input ligand: none) [nM]
UAUAUGGUGAUGGAUACCAGCAGAGAAAACGUUUAUCCUAACAUGAGGAUCACCCAUGUAUGCCCUUGGCAGCUGUUGUUAUAUA [8.M] | 26.7 | 42.3 | 35.2 |  | 
UAUCGCGCGGCGGCCGCCACUAAUGGCAGAUCUGUCGACUAACAUGAGGAUCACCCAUGUCUAACUAGGACCGGGCCCAAGUUGU [theeternabot_sameState_MS2_Trp_B_7] | 30.5 | 66.2 |  | 59 | 
UCAUAAGUACCGGUCCUCAGAUCCUCAUGACGAGGACCGGUACGGCCGCCACUCGAAACAUGAGGAUCACCCAUGUAAUAAUACU [Brourdmod15] | 22.5 | 37.9 |  | 31.9 | 
UCAUGCAGGUCGGCCGCCACUACACACAUGAGGAUCACCCAUGUAGUUACUGGGUGAAGUGGCAGUAGGACCGGGACCUGCAUAU [Brourdmod08] | 155 | 664 | 559 | 696 | 423
UCGACGAUGACCAAAGGUCAGGAGUACGUACGAGGACCGGUACGGCCGCCACUCGAGGAGUGGGACAUGAGGAUCACCCAUGUGG [#20 Exclusion Tryptophan A] | 16.6 | 51.4 | 37.4 | 43.7 | 38.2
UCGCUCUGGGUGGGAUCCGGAGAUGUGGAAGGAGCGCUGGAAACAGCAGGUAGGUCGCCAACGGACAUGAGGAUCACCCAUGUAC [Same State - Arginine A (Freestyle 18)] | 64.9 | 37.4 | 59 | 37.7 | 26.5
UCGGGCAGAGCGGCCGCCACUGUUUGGCGUGCGGAUGAAGGAACAUGAGGAUCACCCAUGUAGAUUAGGACCGGGCUUGCGGAGA [ddrmullin] | 8.61 | 18.1 | 15.9 | 15 | 13.8
UCGGUUUUCUACAUGAGGAUCACCCAUGUCCGAGGACCGGUACGGCCGCCACUCGCAAUCAAACAGACGUGGGCCAAAUUUGCGU [Isinso] | 11.8 | 14.8 |  | 11.6 | 
UCGUAGCUAGGAAGGAGCGCAUACUUCACAUGAGGAUCACCCAUGUCGAGACGUGAGUCAGUGCAGGUAGGUCGCCUAGCUAUGA [Same State - Arginine B (Freestyle 26)] | 18.2 | 22.3 | 19.3 | 21.5 | 17.6
UCGUUUGAGGCGGCCGCCACUGGUCUCAUGGUCAACAUGAGGAUCACCCAUGUAUCUUUGCCAAGCAGGACCGGGCCUCGAGCGA [#20 Exclusion Tryptophan B] | 28.1 | 41.4 | 14.8 | 29.1 | 23.6
UCGUUUUAGUCGGCCGCCACUGGUCUCAUGUUCAACAUGAGGAUCACCCAUGUAUCUUAUUUUAACAGGACCGGGACGUAAUAGA [#16 Exclusion Tryptophan B] | 90.8 | 88.2 |  | 140 | 
UCUACAUGAGGAUCACCCAUGUGCCAUGAUACCAGACAUGAAAAUGUCCCUUGGCAGCAUGGGUAGCGCAUCCGAAAGGAUGCGU [#06 SameState-TheophyllineA] | 42.4 | 155 | 33.4 |  | 
UCUGGGUGCGCAAGGACCUGGAGUUGCGAUACCAGCACGGUAACGUGCCCUUGGCAGCGCACAUGAGGAUCACCCAUGUGGUGUU [#1 Exclusion - Theophylline A Attempt #18 (HarryS)] | 65.6 | 247 | 204 |  | 
UCUUACUAUAGUGAUACCAGACGUACAUGAGGAUCACCCAUGUUACAUUCUUGGUUAAAAGUCCCUUGGCAGCACGAUUUGUUCG [JR_Nu_ExcTheophyB_Sub026] | 9.88 | 10.8 | 9.76 |  | 
UGAACAUGAGGAUCACCCAUGUAGUCAGAUACCAGACACUGCAUGGUCCCUUGGCAGCUGAAGAGCGUUUGCCAAAUAACGUUCA [Theo A SS t4] | 52 | 223 | 258 |  | 
UGACAUGAGGAUCACCCAUGUGUAAGAGAAGGAGCGGCCGGAAGGCCAGGUAGGUCGCUCAGGUAGCGUGAGGAUCACCCGUGUG [big_hook] | 81.8 | 130 | 35.7 | 97.5 | 161
UGACAUUGCUCAGAUACCAGACAUGAGGAUCACCCAUGUACCAAGGUACCCGAAAGGAAUGUCCCUUGGCAGCUGAGCAAUGUCU [TheoBX 3 #MS2Left #Theo2 #StaticStem] | 11.7 | 11.9 | 11 |  | 
UGAUCCUACAGAGAUACCAGUGCCGCUGAGUGACCAGACACAUGAGGAUCACCCAUGUAACACCCUUGGCAGCUCAACUAGAGGG [Same State Theophylline B GF19] | 12.8 | 18.7 | 22 | 98.7 | 18.4

Sequence | apparent KD of MS2 coat protein (input ligand: arginine 13.2 mM) [nM] | apparent KD of MS2 coat protein [1] [nM] | apparent KD of MS2 coat protein [2] [nM] | apparent KD of MS2 coat protein [3] [nM] | apparent KD of MS2 coat protein (input ligand: none) [nM]
UGAUGGAACGGAAGGAGCGUGUAAGAACAAGAACAUGAGGAUCACCCAUGUAUUAAUUUAACACAGGUAGGUCGCCGAGUUAUUG [11.F] | 9.42 | 42.1 | 15.9 | 28.6 | 16.9
UGAUGGUUCGGAAGGAGCGUGUAAGAACAAGAACAUGAGGAUCACCCAUGUAUUAAUUUAACACAGGUAGGUCGCCGAGUUAUUG [11.I] | 12.6 | 22.1 | 17 | 28.9 | 15.9
UGGCGAGAAGGAAGGAGCGUCAGCUGAGUCACAUGAGGAUCACCCAUGUCGCACAUAGUGUGACAGGUAGGUCGCCUUCUGCCCU [Beinmain] | 84.9 | 152 | 156 | 239 | 134
UGGCGAGAAGGAAGGAGCGUCAGCUGAGUUACAUGAGGAUCACCCAUGUUGCACAUAGUGUGACAGGUAGGUCGCCUUCUGCCCU [SS-ArgB19] | 38 | 63.7 | 37.6 | 37.5 | 44.1
UGGUACAUGAGGAUCACCCAUGUUCCAGAUACCAGAUACCCGGUUAUCCCUUGGCAGCUGGUGGUACAUGAGGAUCACCCAUGUG [Exclusion Theophylline A GF15] | 32.9 | 58.9 | 44 |  | 
UGGUACAUGAGGAUCACCCAUGUUCCAGAUACCAGUGUCCCGCUGCACCCUUGGCAGCUGGUGGCACAUGAGGAUCACCCAUGUG [Exclusion Theophylline A GF12] | 11.5 | 16.3 | 15.1 |  | 
UGUAAAAUAACAGAUACCAGCGUGUUAUAAAACAUGAGGAUCACCCAUGUAGUGAUCAAGCGCCCUUGGCAGCUGGUAUUUUAUG [7.D] | 105 | 171 | 140 |  | 
UGUAUGGACUGAAGGAGCGGGAAAAUAAGAUGAGGAUCACCCAUCUAAAAGGCGAAAGCCACCCAGGUAGGUCGCAGUCCAUACU | 27.7 | 34.8 | 7.03 | 8.34 | 8.99
UGUAUGGACUGAAGGAGCGGGUAAUAAACUUGAGGAUCACCCAGGUAAUAGGCGAAAGCCACCCAGGUAGGUCGCAGUCCAUACU | 32.7 | 38.9 | 25.6 | 23 | 28.5
UGUAUGGACUGAAGGAGCGGGUUGAUACCAUGAGGAUCACCCAUGGAAAAGGCGAAAGCCGCCCAGGUAGGUCGCAGUCCAUACU | 14 | 19.7 | 16.6 | 18.4 | 12.9
UGUAUGGGAACAUGAGGAUCACCCAUGUGGCGAGGACCGGUACGGCCGCCACUCGAGCAGCAAGCGUGUAUGACGCUGCUGCAUG [ss-trypA-0mod] | 225 | 377 | 136 | 324 | 312
UGUAUGUGAUCUGAUACCAGACGUGUAAACCUGAGGAUCACCCUGGUAAGGCGAAAGCCAGUCCCUUGGCAGCAGAUCGCAUACU | 47.7 | 40 | 50 | 21.5 | 49
UGUAUGUGAUCUGAUACCAGAGUUGAUAAUCUGAGGAUCACCCUGGUAAGGCGAAAGCCGCUCCCUUGGCAGCAGAUCGCAUACU | 526 | 969 | 884 | 244 | 946
UGUAUGUGAUCUGAUACCAGUCCAACUGGUAAAGCAUGAGGAUCACCCAUGCAAAAUUGGGACCCUUGGCAGCAGAUCGCAUACU | 167 | 213 | 267 | 28.1 | 264
UGUCAAUCGCCGGAUACCAGCCUAACUGAAGGAAAUCUAAACAUGAGGAUCACCCAUGUAGGCCCUUGGCAGCCGAGUAAGUACA [theeternabot_exclusion_MS2_Theo_B_15] | 33.9 | 65.4 | 35.7 |  | 
UGUCGCAGGUUAGAUACCAGCGAGGCGCGGGUAAAUGUUCACAUGAGGAUCACCCAUGUUCGCCCUUGGCAGCUAGUAGGCAUAA [theeternabot_exclusion_MS2_Theo_B_36] | 23.9 | 34 | 27.3 |  | 
UGUCGUAGACAUGAGGAUCACCCAUGUCCACGAGGACCGGUACGGCCGCCACUCGGGAUAUAAACCGUUACGGGUGGGUGGUGUU [Maarlainin] | 16 | 26 |  | 21.2 | 
UGUCUAGUAAUCGAUACCAGCUACAUGAGGAUCACCCAUGUAGUUCGAACGGCCGCAUGUAGCCCUUGGCAGCGAAUAGUUACAU [Onbitelege] | 14.2 | 32.8 | 18.7 |  | 
